Key:
[1] = biological target: human adenovirus type 11 fiber knob (human adenovirus type 11) (UniProt P35774); experiment: crystal structure; complex formed from purified proteins at 4°C for 2 hrs with a 1.2 molar excess of CD46-4D, separated from unbound CD46-4D by size exclusion chromatography (20 mM HEPES, 150 mM NaCl, pH 7.4); crystals at 4°C in 20% polyethylene glycol 1000, 0.2 M ammonium phosphate pH 8.0; space group P6_(3), 2.84 Å
[2] = biological target: the molecule itself; experiment: as above

Molecule: CD46-4D, extracellular segment of human CD46 (membrane cofactor protein) comprising all four SCR domains (domain or fragment)
- stoichiometry N (CD46-4D molecules per knob trimer) [1]: 3

B1: human adenovirus type 11 fiber knob (domain or fragment)
chain: LTFNSNNICIDDNINTLWTGVNPTEANCQIMNSSESNDCKLILTLVKTGALVTAFVYVIGVSNNFNMLTTHRNINFTAELFFDSTGNLLTRLSSLKTPLNHKSGQNMATGAITNAKGFMPSTTAYPFNDNSREKENYIYGTCYYTASDRTAFPIDISVMLNRRAINDETSYCIRITWSWNTGDAPEVQTSATTLVTSPFTFYYIREDD
notes: fiber protein of human adenovirus type 11, knob domain, amino acids 118-325; also called Ad11 knob; Ad11 fiber knob
- stoichiometry N [2]: 3 protomers
